This note sets out measurements from the nanobody polyreactivity screen of Harvey et al. (2022).

The data set is described as follows: yeast display, Sf9 membrane polyspecificity reagent, FACS + sequencing; frameworks hold sequencing errors. In short, it runs like this:
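Synthetic nanobody libraries on Saccharomyces cerevisiae BJ5465 were galactose-induced for 36–48 hours, stained 1 hour at 4 °C with 10% biotinylated, detergent-solubilized Sf9 membrane reagent and enriched on streptavidin microbeads. FACS then separated cells into low and high (top ~1%) gates by anti-HA (expression) and streptavidin (reagent binding) fluorescence. Genes were colony-PCR amplified, MiSeq 2 × 250 sequenced and CDR-length filtered. A clone's polyreactivity label is that of its gate of origin.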
“QVQLVESGGGLVQAGGSLRLSCAASGSIFQPYAMGWYRQAPGKERELVAAINGRGGSTHYADSVKGRFTISRDNAKNTVYLQMNSLKPEDTAVYYCAARYYRDYRWYTYAYDYWGQGTQVTVSS”: the “polyreactivity (PSR sort gate)” value is “high polyreactivity”. Consider “QVQLVESGGGLVQAGGSLRLSCAASGSIFQQYAMGWYRQAPGKERELVASINTSGDGTYYADSVKGRFTISRDNAKNSVYLQMNSLKPEDTAVYYCAVEGIFEQLNRMDYWGQGTQVTVSS”, for which the “polyreactivity (PSR sort gate)” value is “low polyreactivity”. In the case of “QVQLVESGGGLVQAGGSLRLSCAASGSIFQRNAMGSYRQAPGKERELVAAITYSGGGTYYADSVKGRFTISRDNAKNTVYLQMNSLKPEDTAVYYCNADGPSTPWVDYGYWGQGTQVTVSS”, the “polyreactivity (PSR sort gate)” value was “low polyreactivity”. On to “QVQLVESGGGLVQAGGSLRLSCAASGSIFQRNAMGWYRQAPGKERELVAAITYSGGGTYYADSVKGRFTISRDNAKNTVYLQMNSLKPEDTAVYYCAADYKSKYSGYIYDYWGQGTQVTVSS”, for which the “polyreactivity (PSR sort gate)” value is listed as “low polyreactivity”. For the sequence “QVQLVESGGGLVQAGGSLRLSCAASGSIFQRYAMGWYRQAPGKEREFVAAISGRGGSTYYADSVKGRFTISRDNAKNTVYLQMNSLKPEDTAVYYCAADSSRFYGRPRYYYWGQGTQVTVSS”, the “polyreactivity (PSR sort gate)” value was “high polyreactivity”. Consider “QVQLVESGGGLVQAGGSLRLSCAASGSIFQRYTMGWYRQAPGKERELVARISGRGGSTYYADSVKGRFTISRDNAKNTVYLQMKSLKPEDTAVYYCAADTGRYLDSNYWGQGTQVTVSS”, for which the “polyreactivity (PSR sort gate)” value is on record as “high polyreactivity”. In the case of “QVQLVESGGGLVQAGGSLRLSCAASGSIFQSYTMGGYRQAPGKERELVAAINSGGRTNYADSVKGRFTITRDNAKYTVYLQMNSLKPEDTAVYYCAKRLSTRASFGEEDSWGQGTQVTVSS”, the “polyreactivity (PSR sort gate)” value is “low polyreactivity”. The same measure for “QVQLVESGGGLVQAGGSLRLSCAASGSIFQVYAMGWYRQAPGKEREFVAAISYSGGGTYYADSVKGRFTISRDNAKNSVYLQMNSLKPEDTAVYYCAADVSGWEYDYWGQGTQVTVSS”: “low polyreactivity”. For “QVQLVESGGGLVQAGGSLRLSCAASGSIFQVYAMGWYRQAPGKEREFVAAISYSGGGTYYADSVKGRFTISRDTAKNTVYLQMNSLKPEDSAVYYCAATEQYGRDSWSSYRIFPPYDDWGQGTQVTVSS”, the “polyreactivity (PSR sort gate)” value is “low polyreactivity”. For “QVQLVESGGGLVQAGGSLRLSCAASGSIFQYNAMGWYRQAPGKERELVAAINGGGSTYYADSEKGRFTISRDNAKNTVYLQMNSLKPEDTAVYYCAADGGAYSYRGPGKFGIEDSWGQGTQVTVSS”, the “polyreactivity (PSR sort gate)” value is listed as “low polyreactivity”. The result for “QVQLVESGGGLVQAGGSLRLSCAASGSIFRAYAMGWYRQAPGKERELVAAISWGGGSTSYADSVKGRFTISRDNAKNTVYLQMNSLKPEDTAVYYCNKVSLSKRRDYYWGQGTQVTVSS” reads “high polyreactivity”; that for “QVQLVESGGGLVQAGGSLRLSCAASGSIFRDNAMGWYRQAPGKERELVASIRSSGGRTYYADSVKGRFTISRDNAKNTVYLQMNSLKPEDTAVYYCARRWYPVTPYARMYYWGQGTQVTVSS”, “low polyreactivity”; that for “QVQLVESGGGLVQAGGSLRLSCAASGSIFRFNAMGWYRPAPGKERELVAAISDSGGRTYYADSVKGRFTISRDNAKNTVYLQMNSLKPEDTAVYYCNAYVHTQGGDYWGQGTQVTVSS”, “high polyreactivity”.

“QVQLVESGGGLVQAGGSLRLSCAASGSIFRFNAMGWYRQAPGKERELVAAISDSGGRTYYADSVKGRFTISRDNAKNTVYLQMNSLKPEETAVYYCNAYVHSQGGDYWGQGTQVTVSS”: the “polyreactivity (PSR sort gate)” value is on record as “high polyreactivity”. The result for “QVQLVESGGGLVQAGGSLRLSCAASGSIFRFNAMGWYRQAPGKERELVATISRSGGSTYYADSVKGRFTISRDNAKNTVYLQMNSLKPEDTAVYYCAADAYPTWPEYDGLYFKYDYWGQGTQVTVSS” reads “high polyreactivity”. For the sequence “QVQLVESGGGLVQAGGSLRLSCAASGSIFRFYAMGWYIQAPGKERELVAGITWSGASTYYAVSVKGRFTISRDNAKNTVYLQMNSLKPEDTAVYYCAAKSLIVRYDSWGQGTQVTVSS”, the “polyreactivity (PSR sort gate)” value is listed as “high polyreactivity”. Take “QVQLVESGGGLVQAGGSLRLSCAASGSIFRFYAMGWYRQAPGKERELVAGITWSGASTYYADSVKGRFTISRDNAKNTVYFQMNSLKPEDSAVYYCAAKSLIVRYDSWGQGTQVSVSS”: the “polyreactivity (PSR sort gate)” value is “high polyreactivity”. On to “QVQLVESGGGLVQAGGSLRLSCAASGSIFRGNAMGWYRQAPGKEMELVAAINKSGGSTYYADSVKGRFTISRDNAKNTVYLQMNSLKPEDTAVYYCAAVYKRLQPYGYWGQGTQVTVSS”, for which the “polyreactivity (PSR sort gate)” value was “high polyreactivity”. As to “QVQLVESGGGLVQAGGSLRLSCAASGSIFRGNAMGWYRQAPGKERELVAAISKSGGSTYYADSVKGRFTISRDHAKNTVYLQMNSLKPEDTAVYYCAARTTYLYGMYYWGQGTQVTVSS”, the “polyreactivity (PSR sort gate)” value is reported as “low polyreactivity”. As to “QVQLVESGGGLVQAGGSLRLSCAASGSIFRGNAMGWYRQAPGKERELVARITWSGGRTYYADSVKGRFTISRDNAKNTVYLQLNSLKPEDTAVYYCAAQYYLYRRGYMWKYDYWGQGTQVTVSS”, the “polyreactivity (PSR sort gate)” value was “high polyreactivity”. Consider “QVQLVESGGGLVQAGGSLRLSCAASGSIFRGNAMGWYRQATGKERELVAAITSRASSTYYADSVKGRFTLSRDNAKNTVYLQMNSLKPEDTAVYYCAAKWVRSYYTFDHWGQGTQVTVSS”, for which the “polyreactivity (PSR sort gate)” value was “high polyreactivity”.

Consider “QVQLVESGGGLVQAGGSLRLSCAASGSIFRGNVMGWYRQAPGKERELVAAISWSGGSTYYADSVKGRFTISRDNAKNTVYLQMNSLKPEDTAVYYCAVRVWGSARGMDYWGQGTQVTVSS”, for which the “polyreactivity (PSR sort gate)” value is “high polyreactivity”. In the case of “QVQLVESGGGLVQAGGSLRLSCAASGSIFRGYAMGWYIQAPGKERELVAAITSRGGSTYYADSVKGRFTISRDNAKNTVYLQMNSLKPEDTEVYYCNKRVYYPWGQGTQVTVSS”, the “polyreactivity (PSR sort gate)” value is on record as “high polyreactivity”.

“QVQLVESGGGLVQAGGSLRLSCAASGSIFRGYAMGWYRQAPGKERDLVAAITSGGSTNYADSVKGRFTISRDNAKNSVYLQMNSLKPEDTAVYYCAKDLALVAPLSDYWGQGTQVTVSS”: the “polyreactivity (PSR sort gate)” value is on record as “low polyreactivity”. Take “QVQLVESGGGLVQAGGSLRLSCAASGSIFRGYAMGWYRQAPGKERELVAAITFSGGSTYADSVKGRFTISRDNAKNTVYFQMNSLKPEDTAVYDCAAKRTGHNWFTVYPYYSWGQGTQVTVSS”: the “polyreactivity (PSR sort gate)” value is “low polyreactivity”. Regarding “QVQLVESGGGLVQAGGSLRLSCAASGSIFRHYAMGWYRQAPGKERELVAAISAIGGSTYADSVKGRFTISRDNAKNTVYLQMNSLKPEDTAVYYCNARSYTSYVYHEAGEFDYWGQGTQVTVSS”, the “polyreactivity (PSR sort gate)” value was “low polyreactivity”. Turning to “QVQLVESGGGLVQAGGSLRLSCAASGSIFRINAMGWYRQAPGKERELVAAISWSGGSTYYADSVKGRFTISRDNAKNTVYLQMNSLKPEDTAVYYCAAVVSKSSFDYWGQGTQVTVSS”, the “polyreactivity (PSR sort gate)” value is recorded as “low polyreactivity”.

With “QVQLVESGGGLVQAGGSLRLSCAASGSIFRIYAMGWSRQAPGKERELVAAIDSSGGSTYYADSVKGRFTISRDNAKNTVYLQMNSLKPEDTAVYYCAADFGSKSTPYDYWGQGTQVTVSS”, the “polyreactivity (PSR sort gate)” value was “low polyreactivity”. As for “QVQLVESGGGLVQAGGSLRLSCAASGSIFRIYAMGWYRQAPGKERELVAGISKSGGSTYYADSVKGRFTISRDNAKNTVYLQMNSLKPEDTAVYYCNARRPSWGLDKYDYWGQGTQVTVSS”, the “polyreactivity (PSR sort gate)” value is listed as “low polyreactivity”. On to “QVQLVESGGGLVQAGGSLRLSCAASGSIFRKYAMGWYRQAPGKERELVARISSGGRTYYADSVKGRFTISRDNAKNTVYLQMNSLKPEDTAVYFCAAAYYQRGRYSWGQGSQVTVSS”, for which the “polyreactivity (PSR sort gate)” value is on record as “high polyreactivity”.

Take “QVQLVESGGGLVQAGGSLRLSCAASGSIFRKYAMGWYRQAPGKERELVAVITTDGSTNYADSVKGRFTISRDNAKNTVYLQMNSLKPEDTAVYYCNAVRSSIGTDNDYWGQGTQVTVSS”: the “polyreactivity (PSR sort gate)” value is “low polyreactivity”. As for “QVQLVESGGGLVQAGGSLRLSCAASGSIFRLYAMGWYRPAPGKERELVAAISRRGGSTNYADSVKGRFTISRDNAKNTVNLQMNSLKPEDTAVYYCNAVSKRSRYDYWGQGTQVTVSS”, the “polyreactivity (PSR sort gate)” value was “high polyreactivity”. The result for “QVQLVESGGGLVQAGGSLRLSCAASGSIFRLYAMGWYRQAPGKEREFVARIRWRGGSTNYADSVKGRFTISRDNAKNTVYLQMNSLKPEDTAVYYCAAKQGTVRAHTYVPWYDYWGQGTQVTVSS” reads “high polyreactivity”.

On to “QVQLVESGGGLVQAGGSLRLSCAASGSIFRLYAMGWYRQAPGKERELVATITSGGNTYADSVKGRFTISRDNAKNTVYLQMNSLKPEDTAVYYCATTVYAYSYGYEYWGQGTQVTVSS”, for which the “polyreactivity (PSR sort gate)” value was “high polyreactivity”.

For the sequence “QVQLVESGGGLVQAGGSLRLSCAASGSIFRNNAMGWYRQAPGKERELVASITRRGGSTYYADSVKGRFTISRDNAKNTVYLQMNSLKPEDTAVYYCAATTQHRYKLNYWGQGTQVTVSS”, the “polyreactivity (PSR sort gate)” value is reported as “high polyreactivity”. As for “QVQLVESGGGLVQAGGSLRLSCAASGSIFRNYAMGWYRQAPGKERELVAAISRRGGSTYYADSVKGRFTISRDNAKNTVYLQMNSLKPEDTAVYYCKKRWSSKTVQYDYWGQGTQVTVSS”, the “polyreactivity (PSR sort gate)” value is listed as “high polyreactivity”.

For the sequence “QVQLVESGGGLVQAGGSLRLSCAASGSIFRNYAMGWYRQAPGKERELVATISWNGGRTHYADSVKGRFTISRDNAKNTVYLQMNSLKPVDTAVYYCNKDAASFRHFYGYGYWGQGTQVTVSS”, the “polyreactivity (PSR sort gate)” value was “low polyreactivity”. “QVQLVESGGGLVQAGGSLRLSCAASGSIFRNYAMGWYRQAPGKERELVAVITYSGGNTYYADSVKGRFTISRDIAKNTVYLQMNSLKPEDSAVYYCAADYLVVAYGYRYLRHYYWGQGTQVTVSS”: the “polyreactivity (PSR sort gate)” value is listed as “high polyreactivity”. Turning to “QVQLVESGGGLVQAGGSLRLSCAASGSIFRPYAMGWYRQAPGKERELVATITWRGGSTTYADSVKGRFTISRDNAKNTVYLQMNSLKPEDTAVYYCAADASWELFAWAHYDYWGQGTQVTVSS”, the “polyreactivity (PSR sort gate)” value is “low polyreactivity”.

As to “QVQLVESGGGLVQAGGSLRLSCAASGSIFRPYAMGWYRQAPGTERELVAAITWSGGRTYYADSVKGRFTISRDTAKNTVYLQMNSLKPDDTAVYYCAADDSEGFDYWGQGTQVTVSS”, the “polyreactivity (PSR sort gate)” value is given as “high polyreactivity”. The same measure for “QVQLVESGGGLVQAGGSLRLSCAASGSIFRPYVMGWYRQAPGKERELVAAISSRGGDTYYADSVKGRFTISRDNAKNTVYLQMNSLKPEDTAVYYCAAVEFRDSTFVVVSSPTSKSDYWGQGTQVTVSS”: “low polyreactivity”.
